The data set deals with in vitro BBB model (bovine brain endothelial cells co-cultured with mouse mixed glial cells). The data set can be described thus: Fluorescently-labelled peptide in vitro BBB model crossing test. As to conditions: fluorescent peptide, 20 μg/ml fluorophore in DMEM/F12, 60 min at 37° C.

This note sets out measurements from US20150376237A1, “POLYPEPTIDES FOR BLOOD BRAIN BARRIER TRANSPORT” (SAGETIS BIOTECH, SL, priority 2012, published 2015).

Method: Mouse primary cultures of mixed glial cells are seeded on a 24-well plate and bovine brain endothelial cells are cultured on collagen-coated inserts in another plate. After three days, the inserts are moved into astrocyte-containing plates and cultured for a further three days. To assess the integrity of the in vitro BBB, trans-endothelial electrical resistance (TEER) is measured on the day of the experiment. TEER values higher than 200Ω/cm^2 are considered acceptable.
Peptides are applied at 20 μg/ml of fluorophore in the luminal side of the inserts and placed in wells filled with Ringer-Hepes buffer (the composition of Ringer-Hepes buffer is described above). After 1 h incubation, samples from the upper and lower compartments are collected and measured using a fluorimeter. […]
All samples (t=0 up, t=0 down, t=60 up and t=60 down) from each condition (testing peptides and negative control) are plated in black 96-well microplates as well as the corresponding standard curves. Fluorescence is measured using a multi-well plate reader. […]
The endothelial permeability coefficient values for LY and the tested peptide are also determined. […] The increment in cleared volume between the incubation times is calculated by dividing the amount of transported compound by the donor chamber concentration and calculating the total volume cleared, as shown below: […]

“SEQ ID NO: 12: GDAAAAKAAKAAAKAAADGY, rigid polypeptide, single domain binder (Rigid_1)”: the “Percentage BBB crossing” value is on record as “Percentage BBB crossing: 7.51%”.
